PMC5777889
pKd: −log10 of the molar value.

Columns and labels:
Assay in all cases: EMSA
Settings in all cases: buffer, room temperature
HapR (Vibrio cholerae) = test system: HapR (Vibrio cholerae)
LeuO (Vibrio cholerae) = test system: LeuO (Vibrio cholerae)
H-NS (Vibrio cholerae) = test system: H-NS (Vibrio cholerae)

For vieSAB promoter -198 to +70, the pKd (HapR (Vibrio cholerae)) was 6.76.

In the case of vieSAB promoter, El Tor biotype (EMSA), the pKd (LeuO (Vibrio cholerae)) was 7.51 and the pKd (H-NS (Vibrio cholerae)) was 7.28.

“vieSAB promoter, classical biotype (EMSA)” showed a pKd (LeuO (Vibrio cholerae)) of 7.51 and a pKd (H-NS (Vibrio cholerae)) of 7.36.
